According to patent publication US8575093B2, “Composition and method for treating Streptococcus pneumoniae infection” (priority 2006, dated 2013):

Experiments:
[1] = tested on: S. pneumoniae encapsulated serotype 3 strain WU2; experiment: Inhibition of S. pneumoniae adhesion to A549 cells, strain WU2; assay type: cell-based, Streptococcus pneumoniae; conditions: 0.5 μg/well, protein added to cells; FIG. 5A
Method: (§1) Inhibition of S. pneumoniae adhesion to A549 cells by addition of phages: A549 cells (type II epithelial lung carcinoma cells; ATCC, Rockville, Md., USA) were grown in DMEM medium supplemented with 10% foetal calf serum with penicillin and streptomycin (100 μg/ml each) at 37° C. in a humidified incubator. A549 cells (2.5×10^4/well) were cultured on fibronectin coated plates, to increase A549 cell adhesion to the wells and prevent their detachment during washings, in the absence of antibiotic for 24 hours at which time the cells reached confluence (5×10^4 cells/well on average). The plates were blocked with 1% gelatine for 1 hour and 10^6 CFU bacteria were added per well. The adhesion of S. pneumoniae to uncoated plates was negligible (<80 CFU/ml). The number of bacteria that adhered to fibronectin coated plates (8000±100 SD CFU/ml on average) was subtracted afterwards to determine the net number of bacteria that adhered to the A549 cells only. rFBA at the denoted concentrations (ranging from 5-30 μg/ml) was added to the cultured cells and incubated for an hour. Following extensive washings S. pneumoniae (10^6 CFU) were added for 1 hour incubation. To identify phages able to interfere in bacterial adhesion the bacteria were preincubated with the phages for 1 hour centrifuged and added to the cultured cells. […]

[2] = tested on: Unencapsulated S. pneumoniae serotype 3 strain 3.8DW; experiment: Inhibition of S. pneumoniae adhesion to A549 cells, strain 3.8DW; assay type: cell-based, Streptococcus pneumoniae; conditions: 12 μg/well, protein added to cells; FIG. 5B
Method: as §1

B1: rFBA: Recombinant Fructose Bisphosphate Aldolase (FBA; SP0605 Streptococcus pneumoniae TIGR4), 33.5 kDa FBA-HAT fusion protein (protein)
chain: MAIVSAEKFVQAARDNGYAVGGFNTNNLEWTQAILRAAEAKKAPVLIQTSMGAAKYMGGYKVARNLIANLVESMGITVPVAIHLDHGHYEDALECIEVGYTSIMFDGSHLPVEENLKLAKEVVEKAHAKGISVEAEVGTIGGEEDGIIGKGELAPIEDAKAMVETGIDFLAAGIGNIHGPYPVNWEGLDLDHLQKLTEALPGFPIVLHGGSGIPDEQIQAAIKLGVAKVNVNTECQIAFANATRKFARDYEANEAEYDKKKLFDPRKFLADGVKAIQASVEERIDVFGSEGKA
modifications: left off: small tags and cut ends
notes: Recombinant Fructose Bisphosphate Aldolase (FBA; SP0605 Streptococcus pneumoniae TIGR4), 33.5 kDa FBA-HAT fusion protein
[1]
  inhibition of adhesion to A549 cells: 63%
[2]
  inhibition of adhesion to A549 cells: 92%
